Measured values reported in patent US20210061922A1 (CITY OF HOPE, published 2021).

Target: T1, CD16a (UniProt P08637 17-208, limits assumed)
T1 construct: also called Fc receptor CD16
Experiment: surface plasmon resonance traces (FIG. 10D)

T1 sequence (P08637 17-208 limits assumed): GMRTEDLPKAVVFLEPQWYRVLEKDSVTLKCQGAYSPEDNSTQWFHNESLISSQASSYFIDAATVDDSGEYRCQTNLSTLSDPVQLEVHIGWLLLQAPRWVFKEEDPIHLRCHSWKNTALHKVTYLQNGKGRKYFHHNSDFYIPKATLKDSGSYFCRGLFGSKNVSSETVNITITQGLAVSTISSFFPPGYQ

B1: Anti-CD16 nanobody (VHH)
VHH: EVQLTESGGEDVQAGGSLRLSCSASGLTFSSYNMGWFRRAPGKEREFVASITWSGRDTFYADSVKGRFTISRDNAKNTVYLQMSSLKPEDTATYYCAANPWPVAAPRSGTYWGEGTQVTV
notes: also called αCD16; anti-CD16 single domain antibody
  binding result: binds
